Laboratory results as given in PMC2975025 (Developmental cell, 2010).

T1: KR-mutant CHC hub (K1163E and R1165D) (bovine, UniProt P49951 1074-1675, K1163E | R1165D)
T1 sequence (looked up): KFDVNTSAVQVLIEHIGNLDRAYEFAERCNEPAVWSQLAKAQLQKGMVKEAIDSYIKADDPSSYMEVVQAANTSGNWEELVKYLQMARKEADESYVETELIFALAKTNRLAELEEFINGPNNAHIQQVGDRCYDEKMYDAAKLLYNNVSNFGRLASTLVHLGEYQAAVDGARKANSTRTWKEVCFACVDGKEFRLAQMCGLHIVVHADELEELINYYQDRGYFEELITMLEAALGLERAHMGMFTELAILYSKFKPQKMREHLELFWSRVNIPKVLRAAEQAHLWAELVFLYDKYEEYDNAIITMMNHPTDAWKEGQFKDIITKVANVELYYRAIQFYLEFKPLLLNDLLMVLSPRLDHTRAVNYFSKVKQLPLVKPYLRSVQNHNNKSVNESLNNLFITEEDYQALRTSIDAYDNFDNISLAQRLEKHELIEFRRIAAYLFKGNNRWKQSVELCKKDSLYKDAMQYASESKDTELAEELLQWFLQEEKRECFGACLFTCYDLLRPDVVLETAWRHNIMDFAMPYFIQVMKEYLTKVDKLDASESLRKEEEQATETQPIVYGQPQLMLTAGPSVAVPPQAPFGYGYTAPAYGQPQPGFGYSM

B1: Bovine clathrin heavy chain residues 1074–1675 (hub), wild type (domain or fragment, UniProt P49951 1074-1675, looked up)
chain: KFDVNTSAVQVLIEHIGNLDRAYEFAERCNEPAVWSQLAKAQLQKGMVKEAIDSYIKADDPSSYMEVVQAANTSGNWEELVKYLQMARKKARESYVETELIFALAKTNRLAELEEFINGPNNAHIQQVGDRCYDEKMYDAAKLLYNNVSNFGRLASTLVHLGEYQAAVDGARKANSTRTWKEVCFACVDGKEFRLAQMCGLHIVVHADELEELINYYQDRGYFEELITMLEAALGLERAHMGMFTELAILYSKFKPQKMREHLELFWSRVNIPKVLRAAEQAHLWAELVFLYDKYEEYDNAIITMMNHPTDAWKEGQFKDIITKVANVELYYRAIQFYLEFKPLLLNDLLMVLSPRLDHTRAVNYFSKVKQLPLVKPYLRSVQNHNNKSVNESLNNLFITEEDYQALRTSIDAYDNFDNISLAQRLEKHELIEFRRIAAYLFKGNNRWKQSVELCKKDSLYKDAMQYASESKDTELAEELLQWFLQEEKRECFGACLFTCYDLLRPDVVLETAWRHNIMDFAMPYFIQVMKEYLTKVDKLDASESLRKEEEQATETQPIVYGQPQLMLTAGPSVAVPPQAPFGYGYTAPAYGQPQPGFGYSM

Assays:
crystal structure = biological target: the molecule itself; assay: crystal structure
[1] = biological target: B1; assay: SPR
[2] = biological target: T1, KR-mutant CHC hub (K1163E and R1165D); assay: SPR

| Binder | stoichiometry N (crystal structure) | Kd [1] [nM] | Kd [2] [nM] |
| --- | --- | --- | --- |
| B1 | 3 | – | – |
| Human neuronal LCb, his-tagged fusion protein, wild type (natural protein, UniProt P09497 1-229, looked up) MADDFGFFSSSESGAPEAAEEDPAAAFLAQQESEIAGIENDEGFGAPAGSHAAPAQPGPTSGAGSEDMGTTVNGDVFQEANGPADGYAAIAQADRLTQEPESIRKWREEQRKRLQELDAASKVTEQEWREKAKKDLEEWNQRQSEQVEKNKINNRIADKAFYQQPDADIIGYVASEEAFVKESKEETPGTEWEKVAQLCDFNPKSSKQCKDVSRLRSVLMSLKQTPLSR | – | 25 | 59.1 |
